Key:
human CD24 [1] = target: T1, human CD24 (human, UniProt P25063 27-59, heavily glycosylated, GPI-anchored (as described in the background)); assay: FACS, Nalm1 cells
T1 construct: whole, on cells; Target of all cell-based FACS assays; also called hCD24; Cluster of differentiation 24
T1 chain (looked up): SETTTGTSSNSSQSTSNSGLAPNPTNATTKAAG
Description: (§1) Screening & Expansion: The subcloning plates were screened by Acumen assay and the subclones with good binding ability were expanded to 24-wells for confirmation tests. The specificity and cross-reactivity of these subclones were confirmed with FACs analysis. […] Fluorescent dye-conjugated secondary antibody was used to detect the binding of the primary antibody with the cells. Median fluorescence intensity (MFI) was measured by FACs analysis.

human CD24 [2] = target: T1, human CD24; assay: FACS, MDA-MB-468 cells
human CD24 [3] = target: T1, human CD24; assay: cell-based or functional assay
human CD24 [4] = target: T1, human CD24; assay: FACS, H1975 cells
Description: (§2) Sequences of some of antibodies from Table 1 were selected to generate and produce human IgG4 chimeric antibodies. […] The protocol for FACs analysis is described as follows: [0536] a. Digested cells using TrypLE™ Express Enzyme (IX); Centrifuged the harvested cells at 400 g for 5 min and discarding the supernatant. [0537] b. Washed the cells 2 times with cold FACS buffer by centrifuging at 400 g for 5 min and discarding the supernatant. [0538] c. […] Incubate at […] for 1 h. [0539] d. Washed the cells twice by using the condition in step b. Resuspended the cells with 100 μl/well diluted 2nd antibody, incubated at 4 degree for 1 h in the dark. [0540] e. Washed the cells twice by using the condition in step b. Resuspended the cells with 100 μl/well cold FACS buffer. Kept the cells in dark for FACS analysis.

human CD24 [5] = target: T1, human CD24; assay: FACS, CHOK1-hCD24 cells
human CD24 [6] = target: T1, human CD24; assay: FACS, CHOK1-hCD24 cells
Description: as §2

human CD24 [7] = target: T1, human CD24; assay: FACS, 5637 cells
human CD24 [8] = target: T1, human CD24; assay: FACS, MCF7 cells
Description: as §1

human CD24 [9] = target: T1, human CD24; assay: FACS, H1975 cells
Description: as §1

human CD24 [10] = target: T1, human CD24; assay: FACS, A549 cells
Description: as §2

human CD24 [11] = target: T1, human CD24; assay: FACS, 5637 cells
Description: as §2

human CD24 [12] = target: T1, human CD24; assay: FACS, HT-29 cells
Description: as §2

human CD24 [13] = target: T1, human CD24; assay: FACS, MCF7 cells
human CD24 [14] = target: T1, human CD24; assay: FACS, Nalm1 cells
Description: as §2

human CD24 [15] = target: T1, human CD24; assay: FACS, 5637 cells
Description: as §1

human CD24 [16] = target: T1, human CD24; assay: FACS, 293F-hCD24 cells
Description: as §1

human CD24 [17] = target: T1, human CD24; assay: FACS, MDA-MB-468 cells
Description: as §2

human CD24 [18] = target: T1, human CD24; assay: FACS, 293F-hCD24 cells
Description: as §2

human CD24 [19] = target: T1, human CD24; assay: FACS, MCF7 cells
Description: as §2

human CD24 [20] = target: T1, human CD24; assay: FACS, Nalm1 cells
human CD24 [21] = target: T1, human CD24; assay: FACS, 293F-hCD24 cells

B1: SN3 (antibody, V domains shown)
VH: QVQLKESGPGLVAPSQSLSITCTVSGFSLTSYGVHWVRQPPGKGLEWLGVIWAGGSTNYNSALMSRLSISKDNSKSQVFLKMNSLQTDDTAMYYCAVYYGYLFFAYWGQGTLVTVSA
VL: ENVLTQSPAIMSASPGEKVTMTCSASSSVSYMHWYQQKSTTSPKLWIYDTSKLASGVPGRFSGSGSGNSYSLTISSMEAEDVATYYCFQGSGYPLTFGGGTKLEIK
- FACS MFI (human CD24 [1]): 11800
- EC50 (human CD24 [2]): 7.37 nM
- EC50 (nM), phagocytosis against HT-29 cells (human CD24 [3]): 2.1 nM
- Max phagocytosis Index (%), phagocytosis against HT-29 cells (human CD24 [3]): 68.2%
- EC50 (human CD24 [4]): 8.26 nM
- EC50 (human CD24 [5]): 8.67 nM
- EC50 (human CD24 [6]): 3.63 nM
- Max MFI (human CD24 [6]): 29700
- EC50 (human CD24 [7]): 5.74 nM
- FACS MFI (human CD24 [8]): 1080
- FACS MFI (human CD24 [9]): 5210
- EC50 (human CD24 [10]): 3 nM
- Max MFI (human CD24 [10]): 8820
- EC50 (human CD24 [11]): 2.7 nM
- EC50 (human CD24 [12]): 6.61 nM
- Max MFI (human CD24 [12]): 5900
- EC50 (human CD24 [13]): 6.54 nM
- EC50 (human CD24 [14]): 3.43 nM
- Max MFI (human CD24 [14]): 48400
- FACS MFI (human CD24 [15]): 9400
- FACS MFI (human CD24 [16]): 6560
- EC50 (human CD24 [17]): 4.2 nM
- FACS MFI (human CD24 [17]): 6690
- Max MFI (human CD24 [17]): 10800
- EC50 (human CD24 [18]): 3.25 nM
- Max MFI (human CD24 [18]): 34100
- EC50 (human CD24 [19]): 8 nM
- Max MFI (human CD24 [19]): 761
- EC50 (human CD24 [20]): 5.08 nM
- EC50 (human CD24 [21]): 3.5 nM

Source: US20240052052A1 (ANTENGENE BIOLOGICS, published 2024)
